Assay results as given in patent US20100247515A1.

How the values were obtained:
DOM1h-131-202 [1] = test: monomer/dimer self-association, AUC sedimentation velocity
DOM1h-131-202 [2] = test: monomer/dimer self-association, AUC sedimentation equilibrium
DOM1h-131-206 = test: as above

Row | Kd (DOM1h-131-202 [1]) | Kd (DOM1h-131-202 [2]) | Kd (DOM1h-131-206) | Binder
1 | 1000 nM | 1300 nM |  | DOM1h-131-202 (protein) VH: EVQLLESGGGLVQPGGSLRLSCAASGFTFAHETMVWVRQAPGKGLEWVSHIPPDGQDPFYADSVKGRFTISRDNSKNTLYLQMNSLRAEDTAVYYCALLPKRGPWFDYWGQGTLVTVSS
2 |  |  | 360000 nM | DOM1h-131-206 (protein) VH: EVQLLESGGGLVQPGGSLRLSCAASGFTFAHETMVWVRQAPGKGLEWVSHIPPDGQDPFYADSVKGRFTISRDNSKNTLYLQMNSLRAEDTAVYHCALLPKRGPWFDYWGQGTLVTVSS
